This data set deals with DNase I (UniProt P00639). The data set is described as follows: cleavage_in_vitro. To be noted: 2'-F at all nucleotides; 100 mM NaOAc, 5 mM MgCl2, 37 C, 5 min.
DNase I, sequence (P00639 23-282): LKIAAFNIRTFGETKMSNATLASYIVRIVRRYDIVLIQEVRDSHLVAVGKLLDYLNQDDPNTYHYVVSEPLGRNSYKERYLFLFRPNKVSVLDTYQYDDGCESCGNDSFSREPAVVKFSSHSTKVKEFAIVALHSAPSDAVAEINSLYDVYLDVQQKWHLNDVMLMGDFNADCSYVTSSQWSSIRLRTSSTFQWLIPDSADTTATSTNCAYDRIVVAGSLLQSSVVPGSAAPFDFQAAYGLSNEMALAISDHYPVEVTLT

“NNNNNNNNNNNNNNNNNNNNNNNNNNNNNNNNNNNNNNNNCACGAGTGAAGTCTGAGCTCC [BSA-1A FNA library (primer removed)]” had an activity (fold more stable than DNA) greater than 100.

Source of the values: patent US20080070238.
